Assays:
Assay type in all cases: biochemical
[1] = bioconversion of chlorogenic acid from green coffee (Coffea canephora) extract into 3,5-DCQ by IbGDSL from P. pastoris
Protocol: The bioconversion reaction of CGA into 3,5-DCQ was also carried out from a green coffee (Coffea canephora) extract whose composition is indicated in FIG. 7A. This green coffee extract, comprising a CGA concentration equivalent to 10 mM and bioconverted over a period of 50 hours, at 30° C. and pH 6, led to a new extract whose composition is shown in FIG. 7B. […] Furthermore, no other caffeic acid-containing substrate than chlorogenic acid is biotransformed as no decrease in peaks is observed except for that corresponding to CGA. Bioconversion of green coffee extract with IbGDSL increases the 3,5-DCQ content initially present in the extract 4.5-fold (200 mg/L at T0 and 900 mg at T50h) for a starting CGA concentration equivalent to 10 mM. Bioconversion of CGA into 3,5-DCQ from the green coffee extract was performed after 4 and 7 days, in order to analyse the effect of a reaction with GDSL taking place over a long period of time (FIG. 9). […] The concentration of the IbGDSL enzyme obtained by fermentation of P. pastoris accelerates the reaction speed of the conversion of CGA into 3,5-DCQ (FIG. 10). It is noticed that the same level of 3,5-DCQ concentration can be obtained for enzyme concentration factors of 10-, 20- and 37-fold after 60 h of bioconversion.

[2] = in vitro enzyme assay of purified recombinant IbGDSL (produced in N. benthamiana): conversion of CGA into 3,5-DCQ, UPLC-MS
Protocol: The in vitro enzyme assays are conducted on the purified recombinant enzyme produced in a plant system. After 6 days of co-culture, N. benthamiana leaves agro-infiltrated with the vector carrying the gene of interest, are harvested and ground in extraction buffer (20 mM sodium phosphate, 0.5 M NaCl, pH 7.4). The extract is then centrifuged and the supernatant containing all the soluble proteins including IbGDSL is recovered and sterilised by 0.2 μm filtration. Protein purification is then conducted according to the supplier's instructions on Nickel columns (HisTrap HP-GE HEALTHCARE). […]
Enzyme assays are performed in a 50 μl volume with 200-400 ng of the purified protein (that is a few μl). The optimal reaction pH will be determined using a polybuffer (0.1 M Tris/20 mM MES/0.1 M acetic acid) from which a pH range of 4 to 9 will be constructed. […]
3,5-DCQ quantification is done by measuring the area of the peak of a 3,5-DCQ standard at 330 nm. […] The contents of the other compounds (chlorogenic acid and the other DCQ isomers) are expressed as 3,5-DCQ equivalents. The content is calculated according to the following formula for a compound: […]
A pH range between 4 and 9 was established to determine the optimal pH for the conversion of CGA into 3,5-DCQ by virtue of IbGDSL. […] From the curve obtained it was determined that the optimal reaction pH is between 6 and 7 (FIG. 3A). […]

[3] = bioconversion of pure CGA into 3,5-DCQ by P. pastoris culture or supernatant expressing IbGDSL
Protocol: The bioconversion of CGA into 3,5-DCQ in vivo requires the establishment of a highly metabolically active P. pastoris culture. The yeasts are cultured in nutrient medium containing a 100 mM potassium phosphate buffer with a pH adjusted to pH 6.0. This allows the medium in which the enzyme obtained from the microbial cells and the substrate will be in contact, to be maintained at pH 6. After establishing an inoculum of 25 mL of yeast culture overnight at 30° C. under agitation of 250-300 rpm, this is used to inoculate a volume of 100-200 mL of nutrient medium in such a way as to obtain an OD600nm around 1. To this culture 0.5% methanol is added in order to initiate the production of IbGDSL. The addition of methanol is repeated every 24 hours to maintain the level of induction of protein production. […]
The first step of this experiment is to show whether the IbGDSL produced by P. pastoris is capable of converting CGA into 3,5-DCQ knowing that the original enzyme could potentially be glycosylated three-fold and that the glycan trees generated by P. pastoris are not comprised and organised in the same way as the plant glycan trees. These differences could directly influence the stability and prevent the proper activity of the enzyme. To do so, supernatants from two P. pastoris cultures, one transformed with the empty vector (negative control) and the other with the vector carrying the gene encoding IbGDSL were recovered after 3 days of methanol induction. These supernatants were incubated at pH 6.5 with 10 mM chlorogenic acid for 30 minutes at 36° C. The enzymatic reaction was then stopped with the addition of ethanol and analysed by UPLC-MS.
The second step of this experiment is to show whether the CGA directly added to the P. pastoris culture medium expressing the enzyme could be directly converted into 3,5-DCQ. The objective is to avoid the purification step of the enzyme if necessary.
[…] This experiment was conducted at 30° C., the ideal temperature for the culture and growth of the P. pastoris organism.

B1: IbGDSL: recombinant GDSL esterase/lipase enzyme of Ipomoea batatas (SEQ ID No. 1) converting chlorogenic acid into isochlorogenic acid (protein)
chain: MAAAAPSSSLLGVLMLLASIGYAAACYSAVFGFGDSLTDAGNLIRLEPDGTVPHMYFPPYGETYFDKPTGRCSDGRLIVDLIAQHYGLPLPPPSIPASLEGDKNRLRAGVNFAVVGSRALDAQFYEQRDIFDTVTNVSMTDQLNWFKELLPSLCSSPHDCKELLDGSLFVLGEFGGNDYTHSLLSGKGINVIRPFIPIVTRAIAQAVHELVELGARTVMIPSVLPLGCAASYLTYYPSPNPDDYDELGCLIWVNEMASYHNQLLQQQLAHVRELHPYANIVFADIYNAAMEVYQGPDTYGFSGGALRACCGGGGPYNFNTSAQCGNEGATACDNPSSYVNWDGYHLTEAAYQCITTGLLEGPYTYPRMKNLCRFDSRKTSRVAQI
modifications: Ipomoea batatas
product specificity of the bioconversion ([1]; green coffee extract equivalent to 10 mM CGA, 50 hours, 30° C., pH 6): exclusively catalyses the formation of 3,5-DCQ | 3,5-DCQ content at T50h ([1]; starting CGA equivalent to 10 mM, 30° C., pH 6): 900 mg | increase of the 3,5-DCQ content initially present in the extract ([1]; starting CGA equivalent to 10 mM, T50h versus T0): 4.5 fold | CGA concentration from which a slowing down of the enzyme activity is observed ([2]; pH 6.5, 30 minutes of incubation at 36° C.): ≥ 10 mM | temperature of maximum conversion ([2]; purified IbGDSL, 10 mM CGA, pH 6.5, temperature range 15-45° C.): 37 °C | bioconversion yield of CGA into 3,5-DCQ ([3]; 10 mM CGA added directly to culture, pH 6, 30° C., 3 days, stoichiometric limit 50%): around 44% | maximum yield of conversion of pure CGA into 3,5-DCQ ([3]; after 50 hours of bioconversion, 5- and 7.5-mM starting CGA): 32% | 3,5-DCQ content, maximum amounts ([3]; after 50 hours of bioconversion, starting pure CGA 7.5 and 9 mM): ~1.2 g/L | activity of enzyme secreted in P. pastoris supernatant (3,5-DCQ peak) ([3]; supernatant after 3 days methanol induction, pH 6.5, 10 mM chlorogenic acid, 30 minutes at 36° C.): functional

Reference: patent US20230148181A1, “ENZYME FOR THE CONVERSION OF CHLOROGENIC ACID INTO ISOCHLOROGENIC ACID” (UNIVERSITE DE LORRAINE, priority 2020, published 2023)
